Assay results reported in patent US20250025506A1 (INNOVATIVE CELLULAR THERAPEUTICS, published 2025).

B1: S7F11 recombinant anti-UPK2 monoclonal antibody (murine-human chimeric) (antibody, V domains shown)
VH: EVQLKESGAELVRSGASVKLSCTASAFNIKDYYMNWMKQRPEQGLEWIGWIDPENGDTKYAPKFQGKATITADTSSSTAYLQLTSLTSEDSAVFYCNVNYKYDWFAYWGQGTLVTVSA
VL: DVVMTQSQKFMSTSVGDRVSVTCKASQNVGTNVAWYQQKPGQSPRALIYSASYRYSGVPDRFTGSGSGTDFTLTISNVQSEDLAEYFCQQYNTYPWTFGGGTKLEIK
B2: S7F9 recombinant anti-UPK2 monoclonal antibody (murine-human chimeric) (antibody, V domains shown)
VH: QVQLKQSGPGLVRPGASVTMSCKASGYTFTSNWMHWVKQRPGQGLDWIGMIDPSNSDTRLNQKFKDKATLNVDKSSNTAYMQLSSLTSDDSAVYYCMRGGGDYWGQGTTLTVSS
VL: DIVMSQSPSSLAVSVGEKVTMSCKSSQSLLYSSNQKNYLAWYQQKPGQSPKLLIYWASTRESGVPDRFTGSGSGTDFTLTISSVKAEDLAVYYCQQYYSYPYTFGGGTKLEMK
B3: S3D10 recombinant anti-UPK2 monoclonal antibody (murine-human chimeric) (antibody, V domains shown)
VH: QVQLQQSGAELVRSGASVKLSCTDSGFNIKDYYMNWVKQRPEQGLEWIGWIDPENGVTQYDPKFQGKATVTADTFSNTAYLQLSSLTSEDTAVYYCNANYKYDWFGYWGQGTLVTVSA
VL: NIVMTQSPSSLSASLGERVSLTCRASQEISGYLSWLQQKPDGTIKRLIYAASTLDSGVPERFSGSRSGSDYSLTISSLESEDFADYYCLQYASYPWTFGGGTKLEMK
B4: S3A4 recombinant anti-UPK2 monoclonal antibody (murine-human chimeric) (antibody, V domains shown)
VH: EVKLKQSGAELVKPGASVKLSCKASGYTLTSYYIYWVKQRPGQGLEWIGGISPSNGNTYFTEKFKNMATLTVDKSSNTAYMQLSSLTSEDSAVYYCARNYDYDVGFAYWGQGTLVTVSS
VL: DVVMTQTPLSLPVSLGDQASISCRSSQSIVHSNGNTYLEWYLQKPGQSPKLLIYKVSNRFSGVPDRFSGSGSGTDFTLKISRVEAEDLGVYYCFQGSHVPFTFGSGTKLEIK
B5: S2B7 recombinant anti-UPK2 monoclonal antibody (murine-human chimeric) (antibody, V domains shown)
VH: EVQLQQSGAELMKPGTSVKMSCKAAGYTFTKYWIGWVKQRPGHGLEWIGDIYPGGGYTLFNEKFKGKATLTADTSSSTAYMQLSSLTSEDSAIYYCARGNYWGQGTTLTVSS
VL: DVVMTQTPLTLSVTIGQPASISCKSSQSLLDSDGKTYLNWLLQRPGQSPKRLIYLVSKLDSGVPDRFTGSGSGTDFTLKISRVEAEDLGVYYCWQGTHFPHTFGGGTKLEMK

Target: T1, UPK2 antigen on 293T cells (6600, Lenti-UPK2 antigen plasmid) (Homo sapiens (Human), UniProt O00526 85-184)
T1 construct: 293T cells transiently transfected with plasmid 6600 or infected with virus packaged from it; also called UPK2 target cells; 293T cells with UPK2 target
T1 sequence: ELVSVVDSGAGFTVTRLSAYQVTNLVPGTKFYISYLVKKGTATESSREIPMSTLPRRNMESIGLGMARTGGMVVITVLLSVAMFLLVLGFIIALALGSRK
Experiment: flow cytometry, histogram of 293T-6600 cells (293T transiently transfected with plasmid 6600, UPK2-noflag) stained with the antibody; goat-anti-human FITC secondary per paragraph 179

Binder	percent of cells in the positive gate [%]
B1	0.48
B2	0.19
B3	0.07
B4	27
B5	0.06
